Assay results from patent US9872921B2, “DE-N-acetyl sialic acid antigens, antibodies thereto, and methods of use in cancer therapy” (priority 2004, dated 2018).

Experiments:
[1] = system: human tumors; assay: Immunohistochemistry on formalin-fixed paraffin embedded tissue microarrays of human tumors; conditions: primary antibody 1 to 5 μg/ml; 47 human tumors
Procedure: Initial immunohistochemical analysis of antigens recognized by SEAM 3 was performed on unfixed tissues out of concern that the de-N-acetyl amino groups could be blocked by reaction with formaldehyde (vide supra). Subsequently, it was determined that the amino group in de-N-acetyl sialic acid is relatively unreactive as a result of its close proximity to the C1 carboxyl group. Therefore, large scale screening of human tumors for the presence of SEAM 3-reactive antigens was performed using formalin-fixed paraffin embedded tissue sections since processing the samples by this method considerably improves the preservation of cell structural features.
Human tissue microarrays were obtained from US BioMax (Rockville, Md.). The tissue microarrays were deparaffinized in xylene (2 changes, 10 minutes each) then rehydrated by sequential 5 minute washes in 100% ethanol, 95% ethanol, 70% ethanol, 50% ethanol, and PBS buffer. Endogenous peroxidase was blocked by incubation with Peroxidazed 1 solution (Biocare, Concord, Calif.) for 5 minutes at ambient temperature. The sections were blocked with Terminator (Biocare) containing streptavidin then rinsed with PBS buffer. […]

[2] = system: CHP-134 neuroblastoma cells; assay: Fluorescence / confocal microscopy binding to cells; type: cell-based, human; conditions: without Triton
Procedure: (§1) After an overnight incubation cells were gently washed with PBS buffer and fixed with ice-cold 1% (v/v) formaldehyde. After 20 minutes cells were washed with PBS before blocking non-specific binding with a solution of 3% goat serum for 1 hour. To observe the presence of SEAM 3-reactive antigen that is present inside the cells, the cells were treated Triton X-100 0.5% w/v in 3% goat serum for 1 hour. The primary antibodies were added and incubated for 2 hours or overnight at 4° C. Cells were gently washed by a series (at least twice) with ice-cold PBS before isotype-specific secondary antibody (produced in goat) conjugated with either Alexa Fluor 488 (immunofluorescence and confocal), Alexa Fluor 546 (confocal) Alexa Fluor 594 (immunofluorescence), Alexa Fluor 633 (confocal) was applied for at least 1 hour at 4° C. in the dark (all secondary antibodies conjugated to fluorophores were obtained from Invitrogen, Carlsbad, Calif.). After another series of gentle washes, a hardening mounting medium containing DAPI was applied.
(§2) Confocal images were obtained using a Zeiss Meta510 CLSM at the Biological Imaging Facility, University of California, Berkeley, Calif. and were analyzed using ImageJ Software (NIH). Control antibodies and secondary antibodies applied alone were routinely used to assess background fluorescence.

[3] = system: SK-MEL-28 melanoma cells; assay: as above; type: cell-based, human; conditions: without Triton
Procedure: as §1, §2

[4] = system: SK-MEL 28 cells; assay: Cell viability by ViaCount Reagent flow cytometry; type: cell-based, human
Procedure: Cell viability of SK-MEL 28 cells incubated in the presence of SEAM 3 or control mAbs (irrelevant isotype IgG2b or anti-GD3, R24) was determined using ViaCount Reagent (Guava Technologies, Hayward, Calif.), as per manufacturers instructions. […] The viability was analysed using a pre-set program on the Guava EasyCyte flowcytometer. The program has a preset gate for apoptosis and this was routinely incorporated into our studies.

[5] = system: SK-MEL 28 cells; assay: Flow cytometry double labeling of SEAM 3 binding and Ki-67 antigen; type: cell-based, human
Procedure: Cells were processed by the same procedures used to measure SEAM 3 binding in the absence of Triton. After unbound SEAM 3 had been washed away, cells were treated with 3% (v/v) goat serum containing 0.5% Triton to allow entry of an anti-Ki-67 antibody. After 1 h at 4° C., an anti-Ki-67 was added and incubated on-ice for 2 hours. Cells were then collected by centrifugation, washed twice with PBS, and two fluorescently labeled goat anti-mouse secondary antibodies were added, anti IgG2b-Alexa Flour 594 (Invitrogen); anti-IgM-Alexa Flour 488 (Invitrogen). After extensive washing, cells were analyzed on a Guava EasyCyte flow cytometer.

[6] = system: SK-MEL 28 cells; assay: Cell cycle analysis by propidium iodide staining and flow cytometry; type: cell-based, human; conditions: 48 h incubation
Procedure: To further assess the affect of SEAM 3 mAb on cell growth, the stage of the cell cycle after treatment with SEAM 3 was determined. In this experiment, the cells were stained with the fluorescent DNA binding dye propidium iodide to characterize cell populations in various stages of the cell cycle and the effects of adding control antibodies, nocodazole (a drug that arrest the cells in mitosis) and SEAM 3.
Approximately 10^5 SK-MEL 28 cells were plated on a 96-well tissue culture plate and allowed to adhere. After 24 h the medium was replaced with one that had either antibody or drug and incubated for a further 48 h. Cells were spun (to collect any cells that may have detached), and fixed in 70% ice-cold methanol (added drop wise) for at least 30 minutes at 4° C. The cells were washed twice with PBS, and to ensure that only DNA was stained, the fixed cells were treated with ribonuclease I (100 μg/ml, source) for 30 minutes at 37° C. Propidium iodide (50 μg/ml) was added and samples were analyzed using a Guava EasyCyte flow cytometer.

B1: SEAM 3: murine anti-N-Pr NmB polysaccharide monoclonal antibody (IgG2b), ATCC Deposit No. HB-12170 (antibody, V domains shown)
VH: EVKLQESGGGLVQPGDSLSLSCAASGFTFTPYYMGWVRQPPGKALEWLGYIRNKANGYTTEYSASVKGRFTISRDNSQSILYLQMNALRAEDSATYYCARYARGTVDSWGQGTTLTVS
VL: DIVMTQSPLTLSVTIGQPASISCKSSQSLLHSNGKTYLNWLLQRPGQSPKLLIYLVSKLESGVPDRFSGSGSGTDFTLKISRVEAEDLGLYYCLQIIHFPHTFGAGTKLELKRA
modifications: mouse
tumor samples positive for binding [1]: 38 of 47 | binding to cell surface by microscopy [2]: fluorescence is uniform over the cell surface | binding to cell surface by microscopy [3]: fluorescence is uniform over the cell surface | number of viable cells compared to irrelevant IgG2b control mAb ([4]; 5 μg/ml, 24 h incubation): significantly decreases the number of viable cells | number of apoptotic cells compared to IgG2b control mAb ([4]; 5 μg/ml, 48 h): increases the number of apoptotic | number of dead cells compared to IgG2b control mAb ([4]; 5 μg/ml, 48 h): increases | number of viable cells compared to IgG2b control mAb ([4]; 5 μg/ml, 48 h): decreases the number of viable cells | cytotoxic effect ([4]; SK-MEL-28 melanoma, approximately proportional to level of antigen on cell surface): cytotoxic effect of SEAM 3 was observed | cells expressing SEAM 3-reactive antigen on their surface ([5]; cells in exponential growth phase, flow cytometry and fluorescence microscopy): approximately 20% | cells expressing both Ki-67 and SEAM 3-reactive antigen on their surface ([5]; double labeling): approximately 11% | cells that only express SEAM 3-reactive antigen ([5]; double labeling): 13% | effect on cell cycle phase distribution [6]: reduced the proportion of cells in Go, S-phase and G2/M Phase, while increasing the number in pre-Go
